In US20220380763A1, “NUCLEIC ACID DELIVERY ENHANCER” (NATIONAL UNIVERSITY CORPORATION KOCHI UNIVERSITY, priority 2019, published 2022):
Read-outs that look alike come from different tables or passages of the source. Numbered stars: 1 amine (or outer) side, 2 acyl side, 3 side chain; on linkers, the order of the positions; unused ones are H or OH. Square brackets hold non-standard residues; d marks the D form. Peptide text beside a SMILES is read from it. * marks the point of attachment. Pteroyl = Nc1nc2ncc(CNc3ccc(C(=O)*)cc3)nc2c(=O)[nH]1; γGlu = O=C(O)[C@H](CCC(=O)[*:2])N[*:1]; Dab = NCC[C@H](N)C(=O)O

Key:
S2-013 cells = assay: Matrigel invasion assay; format: cell-based, human; settings: versus scrambled control siRNA and siRNA alone
Description: Each of the scrambled control siRNA, SNORA18 siRNA, NUP85 siRNA, WASF2 siRNA, and SNORA22 siRNA (all used in Example 5) with the folic acid-cationic oligopeptide complex added was added to the culture solution of S2-013 cells, and Matrigel invasion assay was performed after 48 hours.
4.0×10^4 cells were suspended in a serum-free medium and seeded in the upper chamber of a Matrigel Invasion Chamber (24-well plate, pore size: 8 μm, manufactured by Becton, Dickinson, and Company). A solvent containing 5% fetal bovine serum was added to the lower chamber. After the cells were incubated in the upper chamber for 20 hours, three independent areas were observed under a microscope, and the cells invading the lower chamber were counted. The same experiment was repeated three times, and the cell invasion ability of 52-013 cells into which each siRNA was taken up was compared.
The “*” denotes a significant difference at P<0.05 as compared to the control in the t-test.
Each of the scrambled control siRNA (SEQ ID NOs: 3 and 4), SNORA18 siRNA (SEQ ID NOs: 21 and 22), NUP85 siRNA (SEQ ID NOs: 23 and 24), WASF2 siRNA (SEQ ID NOs: 25 and 26), and SNORA22 siRNA (SEQ ID NOs: 27 and 28) was added with 2 equivalents of Dab8, Fol-Dab8A, or Fol-Dab8B to the culture solution of pancreatic cancer cell line S2-013 in culture. As a control, each of the control siRNA, SNORA18 siRNA, NUP85 siRNA, WASF2 siRNA, and SNORA22 siRNA was added alone to the culture solution of the S2-013 cells.
After 48 hours of culture, the Matrigel invasion assay was performed. In the Matrigel invasion assay, the number of cells that have migrated from the upper chamber to the lower chamber is shown. The “*” denotes a significant difference at P<0.05 as compared to the control in the t-test.

[1] = tested on: RNA duplex (siRNA, SEQ ID NO: 1 and 2); settings: for Tm: 4 μM nucleic acid duplex, 100 mM NaCl, pH 7.0; for ΔTm: versus no peptide (72.3)
Description: The melting temperature of the nucleic acid duplex was measured in the presence and absence of the cationic oligopeptide or folic acid-cationic oligopeptide complex synthesized in Example 1.
In this Example, the cationic oligopeptide (Dab8) or the folic acid-cationic oligopeptide (Fol-Dab8A or Fol-Dab8B) was added to an annealed RNA duplex, and the melting temperature (Tm value) was measured. As the RNA duplex, an oligonucleotide pair consisting of the following sequences was used as an siRNA.
After 144 μL of 50 μM nucleic acid solution was prepared and kept at 95° C. for 5 minutes, it was slowly cooled to 4° C. at −0.5° C./min. The solution was added to a mixed solution of pH 7.0 buffer containing 200 mM NaCl and 20 mM Na2HPO4—NaH2PO4 in OTSUKA DISTILLED WATER, and 0.1 mM peptide aqueous solution, and samples were adjusted to a final concentration of 10 mM Na2HPO4—NaH2PO4, 100 mM NaCl, 4 μM nucleic acid duplex, and 0, 4, 8, 12, 16, and 20 μM peptide (0, 1, 2, 3, 4, and 5 equivalents, respectively).
The temperature was increased from 20° C. to 95° C. at 0.5° C./min, and the absorbance at 260 nm was measured to determine a melting curve. The absorbance at 320 nm was measured to remove background noise, and a melting curve was created by subtracting the absorbance at 320 nm from the absorbance at 260 nm, and the Tm value was determined by a median method.

[2] = tested on: S2-013 pancreatic cancer cells or HPNE normal pancreatic duct epithelial cells; settings: chemically-modified Alexa488-labeled SNORA22 siRNA, 2 equivalents, overnight
Text: Chemically-modified SNORA22 siRNA (SEQ ID NOs: 27 and 28) prepared in Example 7 was labeled with Alexa488 (Thermo Fisher Scientific Inc.) and added with the folic acid-cationic oligopeptide complex (Fol-Dab8B, 2 equivalents) to the culture solution of S2-013 pancreatic cancer cells or HPNE normal pancreatic duct epithelial cells (ATCC) in a 4-well chamber (Thermo Fisher Scientific Inc.) (5×10^4 cells/well).

[3] = tested on: S2-013 pancreatic cancer cells; settings: for incorporation efficiency of siRNA: among 1 to 3 equivalents; for incorporation efficiency of siRNA compared with Dab8: best equivalent versus Dab8 of 1 to 3 equivalents
Description: Since it is difficult to distinguish between intracellularly incorporated labels and non-incorporated labels by flow cytometry, the uptake of siRNA into pancreatic cancer cells was observed using a confocal microscope.
The pancreatic cancer cell line 52-013 (Cell Resource Center for Biomedical Research, Institute of Development, Aging and Cancer, Tohoku University, ID: TKG 0709) was seeded in a 4-well chamber slide (Thermo Fisher Scientific Inc.) at a cell density of 2×10^4 cells/well, and scrambled control siRNA (SEQ ID NOs: 3 and 4) labeled with Alexa647 (Thermo Fisher Scientific Inc.), and Dab8, Fol-Dab8A, or Fol-Dab8B in 1 to 3 equivalents to the siRNA were added and then cultured for 48 hours. The concentration of siRNA used was 8.28 μg/mL in 25 μL, and Dab8, Fol-Dab8A, and Fol-Dab8B were diluted 25-fold from the stock solution (Dab8: 119.3 μg/mL, Fol-Dab8A and Fol-Dab8B: 141.2 μg/mL) and used. The amounts corresponding to 1, 2, and 3 equivalents relative to siRNA are 3.9 μL, 7.8 μL, and 11.7 μL, respectively.
The next day, the cells were fixed with 4% paraformaldehyde, sealed with a DAPI-containing encapsulant, and then observed with an all-in-one fluorescence microscope (BZ-X800, Keyence Corporation).
To quantify the uptake, the hybrid cell count function of the Keyence analysis software BZ-X800 Analyzer was used to count cells into which siRNA was taken up in the presence of Dab8, Fol-Dab8A, and Fol-Dab8B. Determination was made by measuring cells with dark staining of at least ⅓ of the cell nuclei and cells with dark clumps in the periphery of the cell nuclei.

[4] = chemically-modified NUP85 siRNA (SEQ ID NOs: 23 and 24) with 2 equivalents of peptide
[5] = chemically-modified SNORA18 siRNA (SEQ ID NOs: 21 and 22) with 2 equivalents of peptide
[6] = chemically-modified SNORA22 siRNA (SEQ ID NOs: 27 and 28) with 2 equivalents of peptide
[7] = chemically-modified WASF2 siRNA (SEQ ID NOs: 25 and 26) with 2 equivalents of peptide

`NCC[C@H](NC(=O)[C@H](CCN)NC(=O)[C@H](CCN)NC(=O)[C@H](CCN)NC(=O)[C@H](CCN)NC(=O)[C@H](CCN)NC(=O)[C@H](CCN)NC(=O)[C@H](CCN)NC(=O)CNC(=O)CNC(=O)CNC(=O)[C@H](CCC(=O)O)NC(=O)c1ccc(NCc2cnc3nc(N)[nH]c(=O)c3n2)cc1)C(N)=O` [Fol-Dab8B] (Pteroyl-EGGG[Dab][Dab][Dab][Dab][Dab][Dab][Dab][Dab]-NH2) was tested, and the “invasion of S2-013 cells” value (S2-013 cells; [4]) was “significantly suppressed”, the “invasion of S2-013 cells” value (S2-013 cells; [5]) was “significantly suppressed” and the “invasion of S2-013 cells” value (S2-013 cells; [6]) was “significantly suppressed”. For the same molecule, the “invasion of S2-013 cells” value (S2-013 cells; [7]) was “significantly suppressed”, the Tm ([1]; 1 equivalent peptide) was 74.5 °C and the ΔTm ([1]; 1 equivalent peptide) was 2.2. For the same molecule, the Tm ([1]; 2 equivalents peptide) was 76.4 °C, the ΔTm ([1]; 2 equivalents peptide) was 4.1 and the Tm ([1]; 3 equivalents peptide) was 77.7 °C. It also gave a ΔTm ([1]; 3 equivalents peptide) of 5.4, a Tm ([1]; 4 equivalents peptide) of 78.5 °C and a ΔTm ([1]; 4 equivalents peptide) of 6.2. The Tm ([1]; 5 equivalents peptide) was 79.8 °C, the ΔTm ([1]; 5 equivalents peptide) was 7.5 and the “uptake of SNORA22 siRNA into S2-013 pancreatic cancer cells relative to normal cells (HPNE)” value [2] was ~3 fold. The “incorporation efficiency of siRNA” value ([3]; 1 equivalent) was “highest incorporation efficiency” and the “incorporation efficiency of siRNA compared with Dab8” value [3] was “higher than Dab8”.
`NCC[C@H](NC(=O)[C@H](CCN)NC(=O)[C@H](CCN)NC(=O)[C@H](CCN)NC(=O)[C@H](CCN)NC(=O)[C@H](CCN)NC(=O)[C@H](CCN)NC(=O)[C@H](CCN)NC(=O)CNC(=O)CNC(=O)CNC(=O)CC[C@H](NC(=O)c1ccc(NCc2cnc3nc(N)[nH]c(=O)c3n2)cc1)C(=O)O)C(N)=O` [Fol-Dab8A] ({Pteroyl-γGlu}-GGG[Dab][Dab][Dab][Dab][Dab][Dab][Dab][Dab]-NH2) was tested, and the “invasion of S2-013 cells” value (S2-013 cells; [4]) was “significantly suppressed”, the “invasion of S2-013 cells” value (S2-013 cells; [5]) was “significantly suppressed” and the “invasion of S2-013 cells” value (S2-013 cells; [6]) was “significantly suppressed”. For the same molecule, the “invasion of S2-013 cells” value (S2-013 cells; [7]) was “significantly suppressed”, the Tm ([1]; 1 equivalent peptide) was 75.2 °C and the ΔTm ([1]; 1 equivalent peptide) was 2.9. It also gave a Tm ([1]; 2 equivalents peptide) of 76.8 °C, a ΔTm ([1]; 2 equivalents peptide) of 4.5 and a Tm ([1]; 3 equivalents peptide) of 77.7 °C. For the same molecule, the ΔTm ([1]; 3 equivalents peptide) was 5.4, the Tm ([1]; 4 equivalents peptide) was 78.7 °C and the ΔTm ([1]; 4 equivalents peptide) was 6.4. For the same molecule, the Tm ([1]; 5 equivalents peptide) was 79.1 °C, the ΔTm ([1]; 5 equivalents peptide) was 6.8 and the “incorporation efficiency of siRNA” value ([3]; 3 equivalents) was “highest incorporation efficiency”. For the same molecule, the “incorporation efficiency of siRNA compared with Dab8” value [3] was “higher than Dab8”.
